Assays:
Botrytis cinerea = Botrytis cinerea necrosis areas on treated vine leaves; assay type: in vivo, Botrytis cinerea on Vitis vinifera; details: day 8, control 43 mm^2 (FIG. 12D)
Excerpt: The present inventors also carried out tests aimed at determining the effects of exogenous application of the peptides of the invention, at picomolar and femtomolar concentrations, against the development of the necrotrophic fungus on Solanum melongena (eggplant) plants (FIG. 12C) and Vitis vinifera (vine) plants (FIG. 12D). […] The positive effect of the treatment was statistically significant from day 3 of inoculation of the pathogen to day 8 where values of 11 mm^2 were reached on the control leaves, unlike the treated leaves where values of 8.4 and 6.0 mm^2 were recorded on leaves treated with the peptides PS1-70 and PS1-120 at a concentration of 100 pM, and values of 6.2 and 4.10 mm^2 were recorded on leaves treated with said peptides at a concentration of 100 fM (FIG. 12C). Similar results were obtained on vine plants (FIG. 12D). The positive effect of the treatment was already statistically significant from day 1 of inoculation of the pathogen to day 8 where values of 43 mm^2 were reached on the control leaves, and values of 16.7 and 13.6 mm^2, respectively, were reached on leaves treated with the peptides PS1-70 and PS1-120 at a concentration of 100 pM, and values of 12 and 11.8 mm^2 were reached on leaves treated with said peptides at a concentration of 100 fM (FIG. 12D). Similar results were obtained on olive trees.

[1] = tested on: Spodoptera littoralis larvae; experiment: Bioassay on Spodoptera littoralis larvae fed with peptide-treated tomato leaves; assay type: in vivo
Experimental: Briefly, S. littoralis larvae were grown in a climate chamber at 25° C., 70% relative humidity (RH), with a 16-hour light and 8-hour dark photoperiod and fed with an artificial diet until completion of the first moult. For the bioassays, 150 larvae for each thesis were grown on tomato leaves for the entire duration of the second instar to adapt them to the different diet. The newly moulted third-instar larvae up to the moult stage were fed with plants on which a composition comprising peptides PS1-70 and PS1-120 had been applied at 100 pM and 100 fM concentrations in 1×PBS buffer. Larvae fed with plants treated with 1×PBS buffer only were used as a control. Bioassays were carried out under the same environmental conditions, in 32-well plastic trays containing 1.5% (w/v) agar and 0.005% (w/v) methyl parahydroxybenzoate, which are useful for creating a humid environment for maintaining cell turgor of tomato leaves. Each experimental group consisted of 32 larvae. The survival of the larvae was monitored daily, and their weight every other day. […] A significant decrease in the survival of larvae fed with leaves of plants treated with the peptides of the invention compared to those fed with leaves of the control plants was also observed for both assays (FIGS. 10B and 10D). […] The same assay scheme was carried out by the present inventors by feeding S. littoralis larvae with leaves treated with the peptide PS1-70 and with peptides having the sequences SEQ ID NO. 3, 5, and 8 at femtomolar concentration. […] A significant decrease was also observed in the survival of larvae fed with peptide-treated leaves compared to those fed with the control leaves (FIG. 11B). […] 8, SEQ ID NO. 3, and SEQ ID NO. 5 (FIG. 11B).

[2] = Biometric parameters of tomato plants irrigated with peptides; assay type: in vivo; details: 100 fM; for root surface (root area): 14 days of salt stress 150 mM, 15 days after irrigation (FIG. 20A); for growth (fresh weight) of the aerial part: absence of salt (FIG. 20B)
Experimental: FIG. 20 illustrates the effect of irrigation treatment with the peptides PS1-70, PS1-120 and SEQ ID NO.5 at a concentration of 100 fM on the biometric parameters of the tomato plant. […] The asterisks indicate the statistical significance of the data by Student's t-test (*p<0.05). A few biometric parameters are shown in FIG. 20, measured after 14 days of continuous salt stress (150 mM) and 15 days after irrigation with the peptides PS1-70, PS1-120 and SEQ ID NO.5 at 100 fM concentrations, and the respective controls.

[3] = tested on: cat1, tft1, Sam, HSFA2, HSP70, HSP90, MPK1 and WRKY40 genes; experiment: Salt stress gene expression in tomato plants irrigated with 100 pM peptide; assay type: in vivo; details: 100 pM irrigation
Experimental: The analysis was carried out on the cat1, tft1, Sam, HSFA2, HSP70, HSP90, MPK1 and WRKY40 genes. The asterisks indicate the statistical significance of the data by Student's t-test (*p<0.05; **p<0.01; ***p<0.001).
An experiment was also set up to verify the efficiency of the peptides PS1-70, PS1-120 and SEQ ID NO.5, when administered at femtomolar concentrations, in promoting tolerance to a high salt stress condition.

[4] = day 13, leaves treated at 100 fM, control 44 mg (FIG. 10C)
[5] = day 15, 100 pM, control 96.87% (FIG. 10B)
[6] = day 15, leaves treated at 100 pM, control 38 mg (FIG. 10A)

| Molecule | necrosis areas (Botrytis cinerea; 100 pM) | necrosis areas (Botrytis cinerea; 100 fM) | average weight of larvae [1, 4] | survival rate of larvae [1, 5] | average weight of larvae [1, 6] | root surface (root area) [2] | growth (fresh weight) of the aerial part [2] | activation of salt stress-responsive genes and transcription factors ([3]; 48 hours, 0 mM NaCl (FIG. 17A)) | tolerance to salt / induction of responsive genes ([3]; moderate salt stress 80 mM NaCl (FIG. 17B)) | survival rate of larvae ([1]; day 13, 100 fM, control 100% (FIG. 10D)) | average weight of larvae ([1]; day 13, femtomolar concentration, control 59 mg (FIG. 11A)) | survival rate of larvae ([1]; day 13, femtomolar concentration, control 100% (FIG. 11B)) |
| --- | --- | --- | --- | --- | --- | --- | --- | --- | --- | --- | --- | --- |
| PS1-120: recombinant peptide contained in the amino-terminal region of the Prosystemin polypeptide, free of Systemin; expressed in E. coli (protein, Peptide PS1-120, recombinant peptide contained in the amino-terminal region of the Prosystemin polypeptide, free of Systemin; expressed in E. coli) MGTPSYDIKNKGDDMQEEPKVKLHHEKGGDEKEKIIEKETPSQDINNKDTISSYVLRDDTQEIPKMEHEEGGYVKEKIVEKETISQYIIKIEGDDDAQEKLKVEYEEEEYEKEKIVEKET | 13.6 mm^2 | 11.8 mm^2 | 12 mg | 31.25% | 20 mg | greater root surface | able to promote the growth of the aerial part of the plant | – | – | – | – | – |
| PS1-70: recombinant peptide contained in the amino-terminal region of the Prosystemin polypeptide, free of Systemin; expressed in E. coli (protein, Peptide PS1-70, recombinant peptide contained in the amino-terminal region of the Prosystemin polypeptide, free of Systemin; expressed in E. coli) MGTPSYDIKNKGDDMQEEPKVKLHHEKGGDEKEKIIEKETPSQDINNKDTISSYVLRDDTQEIPKMEHEE | 16.7 mm^2 | 12 mm^2 | 11 mg | 34.37% | 15 mg | greater root surface | able to promote the growth of the aerial part of the plant | able to activate a series of genes and transcription factors responsive to salt stress | more tolerant to salt than the untreated control plants | 0% | 22 mg | 31.25% |

Source: patent US20230270119A1, “BIOSTIMULANT AND BIOPROTECTIVE PEPTIDES AND THEIR USE IN AGRICULTURE” (priority 2020, published 2023)
